# Experimental data from patent US20250215072A1 (published 2025).
# Changes are numbered by the printed parent chain.
# B1: Ab4 (antibody, IgG4, V domains shown)
# VH: EVQLVESGGGLVQPGGSLRLSCAASGFTFSSYSMNWVRQAPGKGLEWVSYISSSSSTIYYADSVKGRFTISRDNAKNSLYLQMNSLRAEDTAVYYCARGVLDYGDMLDPWGQGTLVTVSS
# VL: DIQMTQSPSSLSASVGDRVTITCQASQDITNYLNWYQQKPGKAPKLLIYDASNLETGVPSRFSGSGSGTDFTFTISSLQPEDIATYYCQQADNHPPWTFGGGTKVEIK
# notes: parent of Ab6
# B2: Ab6 (antibody, V domains shown)
# VH: B1 VH with A23T, Y32F, N35D, S53P, S55A, S56D, S78T, D108M
# VL: DIQMTQSPSSLSASVGDRVTITCQASQDITNYLNWYQQKPGKAPKLLIYDASNLETGVPSRFSGSGSGTDFTFTISSLQPEDIATYYCQQADNHPPWTFGGGTKVEIKR
# B3: Ab11 (antibody, IgG4, V domains shown)
# VH: EVQLLESGGGLVQPGGSLRLSCAASGFTFRNYAMSWVRQAPGKGLEWVSSISGSGGATYYADSVKGRFTISRDNSKNTLYLQMNSLRAEDTAVYYCARVSSGHWDFDYWGQGTLVTVSS
# VL: DIQLTQSPSSLSASVGDRVTITCRASQSISSYLNWYQQKPGKAPKLLIYAASNLQSGVPSRFSGSGSGTDFTLTISSLQPEDFATYYCQQTYTVPLTFGGGTKVEIK
# B4: Ab2 (antibody, V domains shown)
# VH: B3 VH with R30A, N31D, S35T, S50A, G56A, Y60F
# VL: DIQLTQSPSSLSASVGDRVTITCRASQSISSYLNWYQQKPGKAPKLLIYAASNLQSGVPSRFSGSGSGTDFTLTISSLQPEDFATYYCQQTYTVPLTFGGGTKVEIKR
# B5: Ab35 (antibody, IgG4, V domains shown)
# VH: B3 VH with G102Y, H103L
# VL: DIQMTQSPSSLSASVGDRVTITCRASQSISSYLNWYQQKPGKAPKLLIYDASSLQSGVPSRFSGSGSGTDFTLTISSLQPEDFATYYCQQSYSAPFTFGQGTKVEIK
# B6: Ab20 (antibody, IgG4, V domains shown)
# VH: B3 VH with R30S, N31A, S35T, S50A, A57V, F106Y
# VL: B3 VL
# B7: Ab12 (antibody, IgG4, V domains shown)
# VH: B3 VH with E1Q, L5V, L11V, G16R, R30S, N31D, S35V, S50A, G56F, A57T
# VL: B3 VL
# B8: Ab19 (antibody, IgG4, V domains shown)
# VH: QVQLVESGGGVVQPGRSLRLSCAASGFTFSSFAMTWVRQAPGKGLEWVSAISGSGAATYFADSVKGRFTISRDNSKNTLYLQMNSLRAEDTAVYYCARVSSGHWDFDEWGQGTLVTVSS
# VL: B3 VL
# Target: T1, murine GARP-proTGFβ1 complex (mouse, UniProt P04202 30-390; G3XA59 18-628)
# T1 construct: Soluble murine complex; also called mGARP-proTGFβ1
# Assay: BLI screen of library antibodies
# T1 sequence (P04202 30-390, chain 1 of 2): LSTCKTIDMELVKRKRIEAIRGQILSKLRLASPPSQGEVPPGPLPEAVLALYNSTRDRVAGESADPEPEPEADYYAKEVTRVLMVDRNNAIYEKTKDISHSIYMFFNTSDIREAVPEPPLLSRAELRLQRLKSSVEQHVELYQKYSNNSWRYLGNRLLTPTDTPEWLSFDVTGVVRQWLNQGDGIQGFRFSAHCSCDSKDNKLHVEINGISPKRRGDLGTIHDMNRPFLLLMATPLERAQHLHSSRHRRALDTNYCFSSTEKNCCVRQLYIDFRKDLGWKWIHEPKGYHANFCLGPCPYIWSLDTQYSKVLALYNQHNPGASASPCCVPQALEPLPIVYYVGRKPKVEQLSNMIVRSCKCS
# T1 sequence (G3XA59 18-628, chain 2 of 2): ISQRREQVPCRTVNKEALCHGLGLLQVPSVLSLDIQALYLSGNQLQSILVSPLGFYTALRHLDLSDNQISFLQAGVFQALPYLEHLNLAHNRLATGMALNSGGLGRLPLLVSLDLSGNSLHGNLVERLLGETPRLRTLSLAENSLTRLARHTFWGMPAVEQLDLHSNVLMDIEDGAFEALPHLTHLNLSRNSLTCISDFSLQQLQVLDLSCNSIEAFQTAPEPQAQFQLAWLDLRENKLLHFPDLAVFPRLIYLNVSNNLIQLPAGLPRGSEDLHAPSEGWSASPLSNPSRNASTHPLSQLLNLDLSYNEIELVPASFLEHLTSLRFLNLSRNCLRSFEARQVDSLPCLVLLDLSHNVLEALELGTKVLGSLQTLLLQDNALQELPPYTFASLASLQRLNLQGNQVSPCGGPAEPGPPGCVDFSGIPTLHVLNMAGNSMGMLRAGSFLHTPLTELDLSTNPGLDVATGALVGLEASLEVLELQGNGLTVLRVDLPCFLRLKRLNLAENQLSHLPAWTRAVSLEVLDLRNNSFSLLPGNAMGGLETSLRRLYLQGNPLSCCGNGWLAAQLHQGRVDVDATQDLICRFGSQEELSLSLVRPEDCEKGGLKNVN
row,binding result,Binder
1,binds,B1

# Target: T2, human GARP-proTGFβ1 complex (human, UniProt P01137 30-390; Q14392 20-627)
# T2 construct: also called hGARP-proTGFβ1; hGARP
# Assay: MSD-SET
# Experimental: (§1) MSD-SET assays were performed to measure affinities of the antibodies at equilibrium. Briefly, each test antibody was diluted 3-5 fold and samples were mixed with biotinylated antigen in a 48-well dish. The SET samples were equilibrated for 20-24 hours at room temperature. Meanwhile, a capture plate was coated with IgG (20 nM) and incubated overnight at 4° C. or 30 minutes at room temperature, followed by a blocking step with 5% BSA. After the capture plate was washed three times, SET samples were added and incubated for 150 seconds. The plate was washed once to remove unbound complexes. 250 ng/ml SA-Sulfotag was added then washed 3 times. 2× Read Buffer was added, and signals from the labeled bound complexes were read with the use of QuickPlex™ SQ 120 instrument.
# (§2) As an example, MSD standard plates (MSD) were coated with a 20 nM solution of monoclonal antibody in PBS for 30 min at room temperature or overnight at 4° C. […] After 20-24 hours of equilibration, the antibody-coated plate was blocked with Blocking Buffer A (MSD) for 30 minutes at room temperature and washed with wash buffer (PBS, 0.1% BSA, 0.05% Tween-20) before adding the equilibrated antibody-antigen complexes to the plate for exactly 2.5 minutes. The plate was washed again with wash buffer before adding 250 ng/ml SULFO-TAG-labeled streptavidin secondary reagent (MSD) in PBS with 0.1% BSA. After washing with wash buffer, plates were read in MSD read buffer (MSD) using the MESO QuickPlex SQ 120 (MSD). The binding data were processed by nonlinear curve fitting in Prism 7 software (Graphpad) to calculate equilibrium binding KD values.
# T2 sequence (P01137 30-390, chain 1 of 2): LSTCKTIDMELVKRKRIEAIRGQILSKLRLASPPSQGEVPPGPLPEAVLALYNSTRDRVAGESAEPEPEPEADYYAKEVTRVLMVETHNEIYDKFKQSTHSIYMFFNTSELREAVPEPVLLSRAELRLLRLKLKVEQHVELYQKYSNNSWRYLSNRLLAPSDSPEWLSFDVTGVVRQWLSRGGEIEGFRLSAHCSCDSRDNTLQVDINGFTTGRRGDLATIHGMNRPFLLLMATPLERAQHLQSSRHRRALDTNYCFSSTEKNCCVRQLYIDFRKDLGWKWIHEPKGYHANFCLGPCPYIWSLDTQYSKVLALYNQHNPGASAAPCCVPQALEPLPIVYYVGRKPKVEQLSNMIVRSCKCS
# T2 sequence (Q14392 20-627, chain 2 of 2): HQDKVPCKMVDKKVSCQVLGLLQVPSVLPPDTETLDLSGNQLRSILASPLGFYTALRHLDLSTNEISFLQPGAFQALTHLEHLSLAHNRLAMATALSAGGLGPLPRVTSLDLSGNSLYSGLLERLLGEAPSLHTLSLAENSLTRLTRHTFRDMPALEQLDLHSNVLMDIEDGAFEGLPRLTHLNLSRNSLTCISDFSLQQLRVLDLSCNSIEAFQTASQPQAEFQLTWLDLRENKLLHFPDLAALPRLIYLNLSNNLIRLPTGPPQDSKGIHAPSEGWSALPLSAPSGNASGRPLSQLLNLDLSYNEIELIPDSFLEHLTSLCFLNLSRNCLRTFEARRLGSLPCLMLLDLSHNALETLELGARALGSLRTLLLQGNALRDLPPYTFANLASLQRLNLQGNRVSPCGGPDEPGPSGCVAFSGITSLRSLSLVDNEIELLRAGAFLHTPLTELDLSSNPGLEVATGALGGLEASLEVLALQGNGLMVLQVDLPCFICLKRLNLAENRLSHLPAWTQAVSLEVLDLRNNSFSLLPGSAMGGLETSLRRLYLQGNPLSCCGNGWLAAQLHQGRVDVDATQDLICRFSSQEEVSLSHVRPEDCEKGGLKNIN
row,Kd [nM],Binder
1,0.027,B2

# Target: T1, murine GARP-proTGFβ1 complex
# Assay: MSD-SET
# Experimental: as §1, §2
row,Kd [nM],Binder
1,0.021,B2

# Target: T3, murine LTBP1-proTGFβ1 complex (mouse, UniProt P04202 30-390; Q8CG19 339-1712, limits assumed)
# T3 construct: also called mLTBP1-proTGFβ1
# Assay: MSD-SET
# Experimental: as §1, §2
row,Kd [nM],Binder
1,0.024,B2

# Target: T4, human LRRC33-proTGFβ1 complex (human, UniProt P01137 30-390; Q86YC3 19-650)
# T4 construct: also called hLRRC33-proTGFβ1; hLRRC33
# Assay: MSD-SET
# Experimental: as §1, §2
# T4 sequence (P01137 30-390 limits assumed, chain 1 of 2): as the sequence (P01137 30-390, chain 1 of 2) above
# T4 sequence (Q86YC3 other isoform, or with tags, fused parts or gaps limits assumed, chain 2 of 2): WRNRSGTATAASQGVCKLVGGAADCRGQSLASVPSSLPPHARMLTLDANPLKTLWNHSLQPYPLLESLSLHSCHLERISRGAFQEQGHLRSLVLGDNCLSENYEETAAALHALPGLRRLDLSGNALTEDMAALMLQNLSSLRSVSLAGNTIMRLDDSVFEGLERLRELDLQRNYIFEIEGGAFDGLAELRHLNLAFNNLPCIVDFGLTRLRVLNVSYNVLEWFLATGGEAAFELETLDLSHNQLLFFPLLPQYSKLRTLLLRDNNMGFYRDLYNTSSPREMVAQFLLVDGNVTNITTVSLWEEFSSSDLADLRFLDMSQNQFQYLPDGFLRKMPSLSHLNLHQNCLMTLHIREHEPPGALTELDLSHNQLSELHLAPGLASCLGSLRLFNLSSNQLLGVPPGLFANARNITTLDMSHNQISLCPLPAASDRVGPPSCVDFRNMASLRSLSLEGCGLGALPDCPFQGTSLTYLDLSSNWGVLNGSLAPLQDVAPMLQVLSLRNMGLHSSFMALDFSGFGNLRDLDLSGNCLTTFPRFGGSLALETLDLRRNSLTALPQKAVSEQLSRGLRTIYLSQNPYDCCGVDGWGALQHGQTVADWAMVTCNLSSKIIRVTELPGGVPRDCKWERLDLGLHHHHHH
row,Kd [nM],Binder
1,0.063,B2

# Target: T2, human GARP-proTGFβ1 complex
# Assay: MSD-SET, hIgG4
# Experimental: as §1
row,Kd [nM],Binder
1,0.027,B2
2,2.5,B1
3,3,B3
4,1.4,B4
5,1.1,B5
6,1.1,B6
7,1.7,B7
8,3.8,B8

# Target: T4, human LRRC33-proTGFβ1 complex
# Assay: MSD-SET, hIgG4
# Experimental: as §1
row,Kd [nM],Binder
1,0.063,B2
2,2.1,B1
3,6.3,B3
4,3.2,B4
5,1.1,B5
6,1.6,B6
7,3.2,B7
8,5.7,B8

# Target: hLTBP1-proTGFβ1 as produced in the cell-based activation assay (human, UniProt P01137 30-390; Q14766 347-1721)
# Assay: cell-based or functional assay
row,"IC50, reporter cell assay [nM]",Binder
1,2.74,B2
2,5.22,B1
3,2.95,B3
4,3.39,B4
5,6.25,B5
6,1.85,B6
7,3.79,B7
8,1.66,B8

# Target: hLRRC33-proTGFβ1 presented on cells (human, UniProt P01137 30-390; Q86YC3 19-692)
# Assay: cell-based or functional assay
row,"IC50, reporter cell assay [nM]",Binder
1,0.495,B2
2,3.5,B1
3,1.27,B3
4,1.38,B4
5,5.37,B5
6,1.35,B6
7,2.43,B7
8,0.401,B8

# Target: hGARP-proTGFβ1 presented on cells (human, UniProt P01137 30-390; Q14392 20-662)
# Assay: cell-based or functional assay
# hGARP-proTGFβ1 presented on cells, sequence (P01137 30-390 limits assumed, chain 1 of 2): as the sequence (P01137 30-390, chain 1 of 2) above
# hGARP-proTGFβ1 presented on cells, sequence (Q14392 20-662 limits assumed, chain 2 of 2): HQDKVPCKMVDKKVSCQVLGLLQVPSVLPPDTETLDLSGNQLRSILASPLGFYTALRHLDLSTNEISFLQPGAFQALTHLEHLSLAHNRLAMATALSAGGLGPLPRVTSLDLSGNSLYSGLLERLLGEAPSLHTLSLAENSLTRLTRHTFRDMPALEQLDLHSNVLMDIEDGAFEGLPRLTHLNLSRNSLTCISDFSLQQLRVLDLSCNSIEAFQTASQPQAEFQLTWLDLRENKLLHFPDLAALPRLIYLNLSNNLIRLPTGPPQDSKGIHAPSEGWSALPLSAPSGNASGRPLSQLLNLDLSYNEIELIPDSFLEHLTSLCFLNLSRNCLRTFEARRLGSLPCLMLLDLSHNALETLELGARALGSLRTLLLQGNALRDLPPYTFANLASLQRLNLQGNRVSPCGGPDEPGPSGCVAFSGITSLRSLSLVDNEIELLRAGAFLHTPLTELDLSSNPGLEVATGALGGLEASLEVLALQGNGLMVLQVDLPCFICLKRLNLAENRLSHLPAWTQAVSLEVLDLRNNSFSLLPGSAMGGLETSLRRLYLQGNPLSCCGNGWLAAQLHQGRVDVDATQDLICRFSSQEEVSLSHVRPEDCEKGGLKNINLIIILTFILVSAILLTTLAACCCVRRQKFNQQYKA
row,"IC50, reporter cell assay [nM]",Binder
1,0.324,B2
2,0.822,B1
3,0.79,B3
4,0.776,B4
5,3.71,B5
6,0.387,B6
7,1.08,B7
8,1.34,B8

# Target: hLTBP3-proTGFβ1 as produced in the cell-based activation assay (human, UniProt P01137 30-390; Q9NS15 44-1303)
# Assay: cell-based or functional assay
# hLTBP3-proTGFβ1 as produced in the cell-based activation assay, sequence (P01137 30-390 limits assumed, chain 1 of 2): as the sequence (P01137 30-390, chain 1 of 2) above
# hLTBP3-proTGFβ1 as produced in the cell-based activation assay, sequence (Q9NS15 44-1303 limits assumed, chain 2 of 2): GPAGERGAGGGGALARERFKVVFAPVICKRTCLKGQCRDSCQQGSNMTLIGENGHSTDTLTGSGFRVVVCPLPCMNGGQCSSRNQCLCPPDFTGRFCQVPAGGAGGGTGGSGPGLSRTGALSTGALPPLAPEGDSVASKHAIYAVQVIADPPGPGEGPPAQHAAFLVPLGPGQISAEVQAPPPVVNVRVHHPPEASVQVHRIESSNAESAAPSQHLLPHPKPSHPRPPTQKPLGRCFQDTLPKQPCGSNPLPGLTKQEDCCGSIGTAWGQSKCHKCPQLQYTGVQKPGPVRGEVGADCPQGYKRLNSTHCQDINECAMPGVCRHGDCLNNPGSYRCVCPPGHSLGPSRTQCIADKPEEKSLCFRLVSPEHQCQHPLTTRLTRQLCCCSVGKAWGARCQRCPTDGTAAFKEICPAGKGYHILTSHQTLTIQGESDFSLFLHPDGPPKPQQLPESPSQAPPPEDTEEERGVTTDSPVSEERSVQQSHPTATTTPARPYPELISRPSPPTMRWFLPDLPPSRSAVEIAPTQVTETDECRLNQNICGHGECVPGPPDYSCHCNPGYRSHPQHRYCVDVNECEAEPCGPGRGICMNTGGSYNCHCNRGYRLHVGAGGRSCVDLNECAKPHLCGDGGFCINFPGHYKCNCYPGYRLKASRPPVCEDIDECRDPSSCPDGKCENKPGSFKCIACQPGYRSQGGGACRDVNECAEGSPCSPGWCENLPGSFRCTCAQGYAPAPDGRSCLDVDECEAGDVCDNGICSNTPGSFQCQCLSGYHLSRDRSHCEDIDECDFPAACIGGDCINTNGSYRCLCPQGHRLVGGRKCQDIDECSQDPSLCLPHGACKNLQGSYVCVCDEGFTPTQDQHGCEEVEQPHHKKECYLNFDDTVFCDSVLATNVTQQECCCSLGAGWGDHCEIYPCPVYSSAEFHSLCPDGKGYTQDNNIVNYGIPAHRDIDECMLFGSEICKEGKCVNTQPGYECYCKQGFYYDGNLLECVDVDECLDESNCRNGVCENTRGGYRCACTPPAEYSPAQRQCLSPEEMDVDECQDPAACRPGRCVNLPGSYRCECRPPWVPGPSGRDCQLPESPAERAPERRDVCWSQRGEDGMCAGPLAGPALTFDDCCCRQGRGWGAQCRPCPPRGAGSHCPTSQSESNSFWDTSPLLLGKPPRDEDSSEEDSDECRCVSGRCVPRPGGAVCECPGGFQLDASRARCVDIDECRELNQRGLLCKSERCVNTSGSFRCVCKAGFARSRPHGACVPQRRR
row,"IC50, reporter cell assay [nM]",Binder
1,0.821,B2
2,5.65,B1
3,1.56,B3
4,0.867,B4
5,2.71,B5
6,1.18,B6
7,1.55,B7
8,1.6,B8

# Target: T2, human GARP-proTGFβ1 complex
# Assay: MSD-SET
# Remark: another data set of the same source
# Experimental: as §2
row,Kd [nM],Binder
1,0.027,B2

# Target: rat LTBP1-proTGFβ1 complex (rat, UniProt P17246 30-390; Q00918 339-1712)
# Assay: MSD-SET
# Experimental: as §2
row,Kd [nM],Binder
1,0.035,B2

# Target: rat LRRC33-proTGFβ1 complex (rat, UniProt P17246 30-390; Q5BK65 25-650)
# Assay: MSD-SET
# Experimental: as §2
row,Kd [nM],Binder
1,0.086,B2

# Target: T1, murine GARP-proTGFβ1 complex
# Assay: MSD-SET
# Remark: another data set of the same source
# Experimental: as §2
row,Kd [nM],Binder
1,0.021,B2

# Target: T3, murine LTBP1-proTGFβ1 complex
# Assay: MSD-SET
# Remark: another data set of the same source
# Experimental: as §2
row,Kd [nM],Binder
1,0.024,B2

# Target: T4, human LRRC33-proTGFβ1 complex
# Assay: MSD-SET
# Remark: another data set of the same source
# Experimental: as §2
row,Kd [nM],Binder
1,0.063,B2

# Target: T2, human GARP-proTGFβ1 complex
# Assay: BLI (Octet)
# Experimental: (§3) The affinity of anti-TGFβ1 antibodies was measured by Octet@ assay on human proTGFβ1 cells, while activity was measured by CAGA12 reporter cells testing human proTGFβ1 inhibition.
row,Kd [nM],Binder
1,0.404,B2
2,0.842,B3
3,0.778,B4
4,7.37,B5
5,0.884,B6
6,7.01,B7
7,11.2,B8

# Target: T4, human LRRC33-proTGFβ1 complex
# Assay: BLI (Octet)
# Experimental: as §3
row,Kd [nM],Binder
1,0.336,B2
2,0.555,B3
3,0.508,B4
4,0.545,B5
5,0.545,B6
6,0.775,B7
7,0.692,B8
